Source: PMC11128890 (Frontiers in Cell and Developmental Biology, 2024)
One block for each molecule: values may come before it.

Tests used:
[1] = molecular target: KDR domain 1 (D1) fused to GST; assay: ELISA-type binding assay; conditions: GST-KDR-D1 100 μg/mL, read off a plot
[2] = molecular target: VEGFR2/KDR (Homo sapiens) (UniProt P35968); conditions: cited from earlier work
[3] = molecular target: T1, KDR domain 1 (D1) fused to GST; assay: ELISA-type binding assay; conditions: chain shown with the change, read off a plot
T1 chain: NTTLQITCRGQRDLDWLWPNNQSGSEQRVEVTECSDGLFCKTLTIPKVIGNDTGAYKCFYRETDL

[4] = molecular target: T2, recombinant soluble integrin αvβ3 (UniProt P06756 31-987; P05106 27-718); assay: ELISA; HBD, NTD or HBD mutants coated on 96-well plates, blocked with BSA; soluble αvβ3 (1 μg/mL) in HEPES-Tyrode buffer + 1 mM MnCl2, 1 h room temperature; bound αvβ3 detected with anti-β3 mAb AV10; binding to HBD inhibited by mAb 7E3 and cation-dependent; conditions: both partners purified
T2 construct: integrin αv subunit, soluble expression construct; integrin β3 subunit, soluble expression construct; PDB 1L5G is the αvβ3 structure used for docking, not necessarily the same limits; also called soluble αvβ3; source: CHO K1 cells, soluble αv and β3 expression constructs, purified (Ni-NTA)
T2 sequence (P06756 31-987, chain 1 of 2): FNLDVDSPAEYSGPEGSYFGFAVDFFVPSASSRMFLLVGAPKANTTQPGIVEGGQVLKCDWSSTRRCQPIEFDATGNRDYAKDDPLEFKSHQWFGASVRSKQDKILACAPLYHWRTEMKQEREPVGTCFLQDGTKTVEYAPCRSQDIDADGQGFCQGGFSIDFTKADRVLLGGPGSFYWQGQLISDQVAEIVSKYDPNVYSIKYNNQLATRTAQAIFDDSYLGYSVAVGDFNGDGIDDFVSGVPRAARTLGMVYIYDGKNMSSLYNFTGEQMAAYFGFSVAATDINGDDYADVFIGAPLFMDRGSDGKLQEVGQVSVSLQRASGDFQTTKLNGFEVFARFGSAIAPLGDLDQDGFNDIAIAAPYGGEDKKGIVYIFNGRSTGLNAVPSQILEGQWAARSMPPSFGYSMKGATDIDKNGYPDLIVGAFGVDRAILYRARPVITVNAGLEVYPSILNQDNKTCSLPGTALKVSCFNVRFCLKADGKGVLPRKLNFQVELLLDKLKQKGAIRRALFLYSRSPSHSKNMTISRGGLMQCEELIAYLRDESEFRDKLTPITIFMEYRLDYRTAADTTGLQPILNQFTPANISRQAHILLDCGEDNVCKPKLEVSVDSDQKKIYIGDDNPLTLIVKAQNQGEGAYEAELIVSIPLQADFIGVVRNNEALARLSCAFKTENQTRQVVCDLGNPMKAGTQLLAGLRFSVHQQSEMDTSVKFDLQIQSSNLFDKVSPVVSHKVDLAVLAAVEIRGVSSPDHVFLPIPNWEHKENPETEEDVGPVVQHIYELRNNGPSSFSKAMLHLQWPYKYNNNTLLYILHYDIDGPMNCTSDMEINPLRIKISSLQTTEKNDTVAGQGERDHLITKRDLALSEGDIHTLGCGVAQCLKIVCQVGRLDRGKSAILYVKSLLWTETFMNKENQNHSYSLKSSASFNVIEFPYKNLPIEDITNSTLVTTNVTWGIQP
T2 sequence (P05106 27-718, chain 2 of 2): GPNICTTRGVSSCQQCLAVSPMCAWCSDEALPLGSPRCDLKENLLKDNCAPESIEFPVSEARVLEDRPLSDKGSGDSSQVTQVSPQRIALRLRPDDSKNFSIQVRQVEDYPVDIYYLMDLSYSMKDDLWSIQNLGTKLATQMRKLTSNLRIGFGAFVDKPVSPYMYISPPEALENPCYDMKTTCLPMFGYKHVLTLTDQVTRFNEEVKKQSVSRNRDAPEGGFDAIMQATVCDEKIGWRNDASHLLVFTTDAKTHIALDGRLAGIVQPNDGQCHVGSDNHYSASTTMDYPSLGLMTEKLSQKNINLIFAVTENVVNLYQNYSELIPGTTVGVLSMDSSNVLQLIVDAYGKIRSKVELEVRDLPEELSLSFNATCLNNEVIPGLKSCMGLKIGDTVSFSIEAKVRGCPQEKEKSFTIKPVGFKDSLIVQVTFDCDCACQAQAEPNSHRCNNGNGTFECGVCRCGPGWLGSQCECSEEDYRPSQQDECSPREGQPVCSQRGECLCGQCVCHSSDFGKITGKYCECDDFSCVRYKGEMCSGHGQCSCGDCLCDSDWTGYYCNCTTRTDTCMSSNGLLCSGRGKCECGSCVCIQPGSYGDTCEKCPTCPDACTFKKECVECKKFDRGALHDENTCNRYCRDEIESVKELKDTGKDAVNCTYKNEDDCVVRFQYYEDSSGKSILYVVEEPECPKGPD

[5] = molecular target: T3, KDR domain 1 (D1), His-tagged; assay: SPR; KDR D1 (His-tagged) immobilised on CM5 chip by amine coupling; HBD injected at 50 μL/min for 1.8 min; HBS-EP buffer (0.01 M HEPES pH 7.4, 0.15 M NaCl, 3 mM EDTA, 0.0005% P20); conditions: both partners purified
T3 construct: first IgG-like domain (D1) of VEGFR2/KDR, amplified from full-length KDR cDNA; Cloned into the BamHI/EcoRI site of pET28a; also called KDR D1; KDR D1 (His-tagged)
T3 chain: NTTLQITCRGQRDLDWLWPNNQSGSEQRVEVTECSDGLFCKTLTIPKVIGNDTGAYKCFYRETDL

[6] = molecular target: T4, KDR domain 1 (D1), His-tagged; assay: SPR
T4 chain: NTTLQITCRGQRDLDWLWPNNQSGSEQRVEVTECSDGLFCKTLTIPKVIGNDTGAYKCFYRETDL

[7] = molecular target: T2, recombinant soluble integrin αvβ3; assay: SPR; soluble αvβ3 (His-tagged) immobilised on CM5 chip by amine coupling; HBD injected at 50 μL/min for 1.8 min; HBS-P buffer (0.01 M HEPES pH 7.4, 0.15 M NaCl, 0.0005% P20) with 1 mM Mn2+; conditions: both partners purified
[8] = HBD at 10 µg/ml, parent: est. 0.93
[9] = HBD coated at 20 µg/ml (highest point of the curve), parent: est. 1.4
[10] = GST-KDR-D1 100 μg/mL, parent: est. 0.51

VEGFR2/KDR (Homo sapiens), sequence (P35968 20-1356): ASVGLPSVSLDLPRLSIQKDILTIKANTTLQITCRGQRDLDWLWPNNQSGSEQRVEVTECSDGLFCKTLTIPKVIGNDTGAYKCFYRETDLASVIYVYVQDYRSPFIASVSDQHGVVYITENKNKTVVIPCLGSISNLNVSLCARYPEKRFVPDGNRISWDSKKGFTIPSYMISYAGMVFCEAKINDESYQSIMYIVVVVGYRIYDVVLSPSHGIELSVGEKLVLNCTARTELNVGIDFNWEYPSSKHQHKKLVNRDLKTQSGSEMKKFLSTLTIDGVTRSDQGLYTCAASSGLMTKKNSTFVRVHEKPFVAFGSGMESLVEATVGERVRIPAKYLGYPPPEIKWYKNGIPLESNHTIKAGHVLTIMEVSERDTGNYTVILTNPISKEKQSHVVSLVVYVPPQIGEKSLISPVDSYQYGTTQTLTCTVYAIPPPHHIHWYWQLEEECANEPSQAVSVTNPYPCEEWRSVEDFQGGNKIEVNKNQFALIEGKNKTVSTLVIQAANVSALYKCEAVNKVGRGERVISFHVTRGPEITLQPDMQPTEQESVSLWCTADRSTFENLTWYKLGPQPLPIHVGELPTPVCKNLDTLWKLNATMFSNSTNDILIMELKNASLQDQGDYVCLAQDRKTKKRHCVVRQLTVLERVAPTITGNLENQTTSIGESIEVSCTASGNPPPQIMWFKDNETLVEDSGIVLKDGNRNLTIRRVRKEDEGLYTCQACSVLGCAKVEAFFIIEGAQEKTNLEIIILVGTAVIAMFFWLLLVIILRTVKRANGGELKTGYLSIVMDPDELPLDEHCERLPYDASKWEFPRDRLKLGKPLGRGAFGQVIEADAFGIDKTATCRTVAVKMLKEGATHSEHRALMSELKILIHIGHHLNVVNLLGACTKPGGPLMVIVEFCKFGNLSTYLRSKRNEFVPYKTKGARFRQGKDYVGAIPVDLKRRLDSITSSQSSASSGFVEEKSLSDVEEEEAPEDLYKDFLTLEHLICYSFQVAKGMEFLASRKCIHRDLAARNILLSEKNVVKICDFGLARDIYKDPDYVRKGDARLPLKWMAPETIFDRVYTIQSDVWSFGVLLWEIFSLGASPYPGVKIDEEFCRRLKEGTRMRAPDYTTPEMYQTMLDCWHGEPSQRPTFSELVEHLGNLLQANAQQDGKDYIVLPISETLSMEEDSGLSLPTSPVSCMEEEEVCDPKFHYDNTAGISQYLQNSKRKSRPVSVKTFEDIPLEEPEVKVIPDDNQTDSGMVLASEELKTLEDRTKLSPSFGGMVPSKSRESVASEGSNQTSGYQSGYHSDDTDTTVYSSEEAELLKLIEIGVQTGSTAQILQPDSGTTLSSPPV

Molecule: VEGF165 heparin-binding domain (HBD), wild type K145E
- response [1, 8]: 0.74 OD450
- response [1, 9]: 1.1 OD450

Molecule: VEGF165 (from UniProt P15692)
- Kd [2]: 0.14 nM

Molecule: PCGPCSERREHLFVQDPQTCKCSCKNTDSRCKARQLELNERTCRCDKPRR [VEGF165 heparin-binding domain (HBD), wild type K125E]
- response [3, 10]: 0.31 OD450

Molecule: PCGPCSEAAAHLFVQDPQTCKCSCANTDSACKAAQLELNERTCRCDKPRR [VEGF165 heparin-binding domain (HBD), wild type R123A; R124A; K125A; K140A; R145A; R149A]
- response ([3]; left graph (dose-response), HBD coated at 10 µg/ml, soluble GST-tagged KDR fragment 100 μg/mL, parent: est. 0.77): 0.1 OD450
- response ([3]; left graph (dose-response), HBD coated at 20 µg/ml, soluble GST-tagged KDR fragment 100 μg/mL, parent: est. 1.2): 0.16 OD450
- response ([3]; right graph (bar chart), 20 µg/ml, n=3, soluble GST-tagged KDR fragment 100 μg/mL, parent: est. 1.4): 0.13 OD450

Molecule: PCGPCSEERKHLFVQDPQTCKCSCKNTDSRCKARQLELNERTCRCDKPRR [VEGF165 heparin-binding domain (HBD), wild type R123E]
- response [3, 10]: 0.14 OD450

Second part, the molecule after the results:

- response [1, 8]: 0.73 OD450
- response [1, 9]: 0.89 OD450
Molecule: VEGF165 heparin-binding domain (HBD), wild type K140E

- response [1, 8]: 1 OD450
Molecule: VEGF165 heparin-binding domain (HBD), wild type K136E

- binding result [4]: binds
Molecule: PCGPCSEAAAHLFVQDPQTCKCSCKNTDSRCKARQLELNERTCRCDKPRR (domain or fragment, human, the substitutions are to be applied) [VEGF165 HBD R123A/R124A/K125A mutant]

- response [3, 10]: 0.2 OD450
Molecule: PCGPCSEREKHLFVQDPQTCKCSCKNTDSRCKARQLELNERTCRCDKPRR [VEGF165 heparin-binding domain (HBD), wild type R124E]

- response [3, 10]: 0.06 OD450
- response ([3]; HBD at 10 µg/ml, GST-KDR-D1 100 μg/mL, parent: est. 0.93): 0.14 OD450
- response ([3]; HBD coated at 20 µg/ml (highest point of the curve), GST-KDR-D1 100 μg/mL, parent: est. 1.4): 0.16 OD450
Molecule: PCGPCSEEEEHLFVQDPQTCKCSCKNTDSRCKARQLELNERTCRCDKPRR [VEGF165 heparin-binding domain (HBD), wild type R123E; R124E; K125E]

- Kd [5]: ~100 nM
- Kd [6]: 109 nM
- Kd [7]: 470 nM
B1: VEGF165 heparin-binding domain (HBD), wild type (domain or fragment, human)
chain: PCGPCSERRKHLFVQDPQTCKCSCKNTDSRCKARQLELNERTCRCDKPRR
notes: Cloned into the BamHI/EcoRI site of pET28a; PDB 2VGH is the HBD structure used for docking; also called VEGF165-HBD; VEGF165 HBD

- binding result [4]: binds
Molecule: PCGPCSERRKHLFVQDPQTCKCSCANTDSACKAAQLELNERTCRCDKPRR (domain or fragment, human, the substitutions are to be applied) [VEGF165 HBD K140A/R145A/R149A mutant]
